Experimental data: patent US20250154272A1 (Astellas, published 2025)
Where two headings read alike, the source gives them in different places.

Experiments:
[1] = target: T1, monkey CD137-human Fc fusion protein (monkey; human, UniProt Q07011 24-186); experiment: ELISA of the purified antibody on coated plates
T1 construct: not shown: human IgG1 Fc of the pFUSE-hIgG1-Fc1 vector (InvivoGen, pfuse-hg1fc1)
T1 chain: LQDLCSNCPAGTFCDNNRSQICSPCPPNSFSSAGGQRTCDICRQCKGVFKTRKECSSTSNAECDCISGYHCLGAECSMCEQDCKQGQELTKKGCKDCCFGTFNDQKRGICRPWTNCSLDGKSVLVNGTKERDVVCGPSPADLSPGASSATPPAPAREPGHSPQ

[2] = target: T2, human CD137-human Fc fusion protein (human, UniProt Q07011 24-186); experiment: ELISA of the purified antibody on coated plates
T2 construct: not shown: human IgG1 Fc of the pFUSE-hIgG1-Fc1 vector (InvivoGen, pfuse-hg1fc1)

[3] = target: T3, human CD137-His tag protein (R&D Systems, 9220-4B) (human, UniProt Q07011 24-186); experiment: ELISA, human CD137-His tag protein immobilized on the plate, anti-human IgG Fc-HRP, A450-A570
T3 construct: Bought protein; not shown: His tag of the bought protein

[4] = target: T3, human CD137-His tag protein (R&D …); experiment: as above; remark: listed apart in the source

B1: anti-CD137 antibody 3-34 (antibody, V domains shown)
VH: QVQLQQSEAELVRPGASVKISCKAFGYTFTNHHINWVKQRPGQGLDWIGYINPYNDYTTFNRKFKDKATLTVHKSSSTAYMELSGLTSDDSAVYYCARTWGHWYFDLWGRGTVVTVSS
VL: EIVMTQSPATLSVSPGERATLSCRASQSVSSNLAWYQQKPGQAPRLLIYDSSTRATGIPARFSGSGSGTDFTLTISSLQSEDFAVYYCQQYNNWPPWTFGQGTKVEIKR
notes: Purified from a hybridoma derived from a VelocImmune mouse (human variable, mouse constant regions)
binding result [1]: binds | binding result [2]: binds

B2: anti-CLDN4 (hKM3900)/anti-CD137 scFv bispecific antibody hKM3900_tA2-32LH_S (bispecific antibody)
heavy (part 1 of 2): EVQLVQSGAEVKKPGASVKISCKASGYTFTDYYMNWVRQAPGQGLEWMGDVVPNNGVPTYNQKFKGRVTITADKSTSTAYMELRSLRSEDTAVYYCARPHYYYAGRSGAMDYWGQGTLVTVSS
heavy (part 2 of 2): QSVLTQPPSASGTPGQRVTISCSGSSSNIGSNTVNWYQQFPGTAPKLLIYSNNQRPSGVPDRFSGSKSGTSASLAISGLQSEDEADYYCAGWDDSLNGPVFGGGTKLTVLGGGGGSGGGGSGGGGSGGGGSQVQLQESGPGLVKPSETLSLTCTVSGGSISGYYWSWIRQPPGKGLEWIGYIYYSGFTNYNPSLKSRVTISVDTSKNQFSLKLSSVTAADTAVYYCTRDHSHYYYMDVWGQGTTVTVSS
light: DIQLTQSPSSLSASVGDRVTITCTASSTVSSTYLHWYQQKPGKAPKLLIYSTSNLASGVPSRFSGSGSGTDYTLTISSLQPEDFATYYCHQYHRSPPTFGQGTKLEIKRTVAAPSVFIFPPSDEQLKSGTASVVCLLNNFYPREAKVQWKVDNALQSGNSQESVTEQDSKDSTYSLSSTLTLSKADYEKHKVYACEVTHQGLSSPVTKSFNRGEC
notes: scFv at the heavy chain C-terminus; not shown: human IgG1 heavy chain constant region; mutation positions by EU index; GS linker
EC50 (read off the curve) [3]: ~10 ng/mL

B3: anti-CLDN4 (hKM3900)/anti-CD137 scFv bispecific antibody hKM3900_tA2-32 (bispecific antibody)
heavy (part 1 of 2): EVQLVQSGAEVKKPGASVKISCKASGYTFTDYYMNWVRQAPGQGLEWMGDVVPNNGVPTYNQKFKGRVTITADKSTSTAYMELRSLRSEDTAVYYCARPHYYYAGRSGAMDYWGQGTLVTVSS
heavy (part 2 of 2): QVQLQESGPGLVKPSETLSLTCTVSGGSISGYYWSWIRQPPGKCLEWIGYIYYSGFTNYNPSLKSRVTISVDTSKNQFSLKLSSVTAADTAVYYCTRDHSHYYYMDVWGQGTTVTVSSGGGGSGGGGSGGGGSQSVLTQPPSASGTPGQRVTISCSGSSSNIGSNTVNWYQQFPGTAPKLLIYSNNQRPSGVPDRFSGSKSGTSASLAISGLQSEDEADYYCAGWDDSLNGPVFGCGTKLTVLG
light: DIQLTQSPSSLSASVGDRVTITCTASSTVSSTYLHWYQQKPGKAPKLLIYSTSNLASGVPSRFSGSGSGTDYTLTISSLQPEDFATYYCHQYHRSPPTFGQGTKLEIKRTVAAPSVFIFPPSDEQLKSGTASVVCLLNNFYPREAKVQWKVDNALQSGNSQESVTEQDSKDSTYSLSSTLTLSKADYEKHKVYACEVTHQGLSSPVTKSFNRGEC
notes: as for B2
EC50 (read off the curve) [4]: ~10 ng/mL

B4: anti-CLDN4 (hKM3900)/anti-CD137 scFv bispecific antibody hKM3900_tA2-73 (bispecific antibody)
heavy (part 1 of 2): EVQLVQSGAEVKKPGASVKISCKASGYTFTDYYMNWVRQAPGQGLEWMGDVVPNNGVPTYNQKFKGRVTITADKSTSTAYMELRSLRSEDTAVYYCARPHYYYAGRSGAMDYWGQGTLVTVSS
heavy (part 2 of 2): QVQLQESGPGLVKPSETLSLTCTVSGGSISSYYWTWIRQPPGKCLELVGYIYYSGYTSYNPSLKSRVTISIDTSKNQFSLQLNSVTAADTAVYFCARDDYGGNGYYGVDVWGQGTTVTVSSGGGGSGGGGSGGGGSQSVLTQPPSASGTPGQRVTISCSGSSSNIGNNPVNWYRQLPGTAPKLLIYSNNQRPSGVPDRFSGSKSGTSASLAISGLQSEDEADYYCAAWDDSLNGWVFGCGTKLTVLG
light: DIQLTQSPSSLSASVGDRVTITCTASSTVSSTYLHWYQQKPGKAPKLLIYSTSNLASGVPSRFSGSGSGTDYTLTISSLQPEDFATYYCHQYHRSPPTFGQGTKLEIKRTVAAPSVFIFPPSDEQLKSGTASVVCLLNNFYPREAKVQWKVDNALQSGNSQESVTEQDSKDSTYSLSSTLTLSKADYEKHKVYACEVTHQGLSSPVTKSFNRGEC
notes: as for B2
EC50 (read off the curve) [4]: ~10 ng/mL

B5: anti-CLDN4 (hKM3900)/anti-CD137 scFv bispecific antibody hKM3900_tA2-73_S (bispecific antibody)
heavy (part 1 of 2): EVQLVQSGAEVKKPGASVKISCKASGYTFTDYYMNWVRQAPGQGLEWMGDVVPNNGVPTYNQKFKGRVTITADKSTSTAYMELRSLRSEDTAVYYCARPHYYYAGRSGAMDYWGQGTLVTVSS
heavy (part 2 of 2): QVQLQESGPGLVKPSETLSLTCTVSGGSISSYYWTWIRQPPGKCLELVGYIYYSGYTSYNPSLKSRVTISIDTSKNQFSLQLNSVTAADTAVYFCARDDYGGNGYYGVDVWGQGTTVTVSSGGGGSGGGGSGGGGSQSVLTQPPSASGTPGQRVTISCSGSSSNIGNNPVNWYRQLPGTAPKLLIYSNNQRPSGVPDRFSGSKSGTSASLAISGLQSEDEADYYCAAWDDSLNGWVFGCGTKLTVLG
light: DIQLTQSPSSLSASVGDRVTITCTASSTVSSTYLHWYQQKPGKAPKLLIYSTSNLASGVPSRFSGSGSGTDYTLTISSLQPEDFATYYCHQYHRSPPTFGQGTKLEIKRTVAAPSVFIFPPSDEQLKSGTASVVCLLNNFYPREAKVQWKVDNALQSGNSQESVTEQDSKDSTYSLSSTLTLSKADYEKHKVYACEVTHQGLSSPVTKSFNRGEC
notes: as for B2
EC50 (read off the curve) [3]: ~10 ng/mL

B6: anti-CLDN4 (hKM3900)/anti-CD137 scFv bispecific antibody hKM3900_tA2-48 (bispecific antibody)
heavy (part 1 of 2): EVQLVQSGAEVKKPGASVKISCKASGYTFTDYYMNWVRQAPGQGLEWMGDVVPNNGVPTYNQKFKGRVTITADKSTSTAYMELRSLRSEDTAVYYCARPHYYYAGRSGAMDYWGQGTLVTVSS
heavy (part 2 of 2): QVQLQESGPGLVKPSETLSLTCTVSGGSISSYYWSWIRQPPGKCLEWIGYIYYSGYTNYNPSLKSRVNISVDTSQNQFSLKLNSLTAADTAVYYCARTHSYYYGMDVWGQGTTVTVSSGGGGSGGGGSGGGGSQSVLTQPPSASGTPGQRVTISCSGSSSNIGNNPVNWYQQFPGTAPKLLIYSNNQRPSGVPDRFSGSKSGTSASLAISGLQSEDEADYYCEAWDDSLNGPVFGCGTKLTVLG
light: DIQLTQSPSSLSASVGDRVTITCTASSTVSSTYLHWYQQKPGKAPKLLIYSTSNLASGVPSRFSGSGSGTDYTLTISSLQPEDFATYYCHQYHRSPPTFGQGTKLEIKRTVAAPSVFIFPPSDEQLKSGTASVVCLLNNFYPREAKVQWKVDNALQSGNSQESVTEQDSKDSTYSLSSTLTLSKADYEKHKVYACEVTHQGLSSPVTKSFNRGEC
notes: as for B2
EC50 (read off the curve) [4]: ~10 ng/mL

B7: anti-CLDN4 (hKM3900)/anti-CD137 scFv bispecific antibody hKM3900_3-34-j6_S (bispecific antibody)
heavy (part 1 of 2): EVQLVQSGAEVKKPGASVKISCKASGYTFTDYYMNWVRQAPGQGLEWMGDVVPNNGVPTYNQKFKGRVTITADKSTSTAYMELRSLRSEDTAVYYCARPHYYYAGRSGAMDYWGQGTLVTVSS
heavy (part 2 of 2): EVQLLESGGGLVQPGESLRLSCKAFGYTFTNHHINWVRQAPGKCLEWVGYINPYNDYTTFNDKFKDRFTLSVDKSKSTAYLQMNSLRAEDTAVYYCARTWGHWYFDLWGQGTLVTVSSGGGGSGGGGSGGGGSNIQMTQSPSSLSASVGDRVTITCRASQSVSSNLAWYQQKPGKAPKLLIYDSSTRATGVPSRFSGSGSGTDFTLTISSLQPEDFATYYCQQYNNWPPWTFGCGTKLEIKR
light: DIQLTQSPSSLSASVGDRVTITCTASSTVSSTYLHWYQQKPGKAPKLLIYSTSNLASGVPSRFSGSGSGTDYTLTISSLQPEDFATYYCHQYHRSPPTFGQGTKLEIKRTVAAPSVFIFPPSDEQLKSGTASVVCLLNNFYPREAKVQWKVDNALQSGNSQESVTEQDSKDSTYSLSSTLTLSKADYEKHKVYACEVTHQGLSSPVTKSFNRGEC
notes: scFv at the heavy chain C-terminus; Fc mutation P331S with L234A and L235A; not shown: human IgG1 heavy chain constant region; mutation positions by EU index; GS linker
EC50 (read off the curve) [3]: ~10 ng/mL

B8: anti-CLDN4 (hKM3900)/anti-CD137 scFv bispecific antibody hKM3900_tA2-48_S (bispecific antibody)
heavy (part 1 of 2): EVQLVQSGAEVKKPGASVKISCKASGYTFTDYYMNWVRQAPGQGLEWMGDVVPNNGVPTYNQKFKGRVTITADKSTSTAYMELRSLRSEDTAVYYCARPHYYYAGRSGAMDYWGQGTLVTVSS
heavy (part 2 of 2): QVQLQESGPGLVKPSETLSLTCTVSGGSISSYYWSWIRQPPGKCLEWIGYIYYSGYTNYNPSLKSRVNISVDTSQNQFSLKLNSLTAADTAVYYCARTHSYYYGMDVWGQGTTVTVSSGGGGSGGGGSGGGGSQSVLTQPPSASGTPGQRVTISCSGSSSNIGNNPVNWYQQFPGTAPKLLIYSNNQRPSGVPDRFSGSKSGTSASLAISGLQSEDEADYYCEAWDDSLNGPVFGCGTKLTVLG
light: DIQLTQSPSSLSASVGDRVTITCTASSTVSSTYLHWYQQKPGKAPKLLIYSTSNLASGVPSRFSGSGSGTDYTLTISSLQPEDFATYYCHQYHRSPPTFGQGTKLEIKRTVAAPSVFIFPPSDEQLKSGTASVVCLLNNFYPREAKVQWKVDNALQSGNSQESVTEQDSKDSTYSLSSTLTLSKADYEKHKVYACEVTHQGLSSPVTKSFNRGEC
notes: as for B2
EC50 (read off the curve) [3]: ~10 ng/mL

B9: anti-CLDN4 (hKM3900)/anti-CD137 scFv bispecific antibody hKM3900_tA2-32_S (bispecific antibody)
heavy (part 1 of 2): EVQLVQSGAEVKKPGASVKISCKASGYTFTDYYMNWVRQAPGQGLEWMGDVVPNNGVPTYNQKFKGRVTITADKSTSTAYMELRSLRSEDTAVYYCARPHYYYAGRSGAMDYWGQGTLVTVSS
heavy (part 2 of 2): QVQLQESGPGLVKPSETLSLTCTVSGGSISGYYWSWIRQPPGKCLEWIGYIYYSGFTNYNPSLKSRVTISVDTSKNQFSLKLSSVTAADTAVYYCTRDHSHYYYMDVWGQGTTVTVSSGGGGSGGGGSGGGGSQSVLTQPPSASGTPGQRVTISCSGSSSNIGSNTVNWYQQFPGTAPKLLIYSNNQRPSGVPDRFSGSKSGTSASLAISGLQSEDEADYYCAGWDDSLNGPVFGCGTKLTVLG
light: DIQLTQSPSSLSASVGDRVTITCTASSTVSSTYLHWYQQKPGKAPKLLIYSTSNLASGVPSRFSGSGSGTDYTLTISSLQPEDFATYYCHQYHRSPPTFGQGTKLEIKRTVAAPSVFIFPPSDEQLKSGTASVVCLLNNFYPREAKVQWKVDNALQSGNSQESVTEQDSKDSTYSLSSTLTLSKADYEKHKVYACEVTHQGLSSPVTKSFNRGEC
notes: as for B2
EC50 (read off the curve) [3]: ~10 ng/mL

B10: anti-CD137 antibody A2-48 (antibody, V domains shown)
VH: QVQLQESGPGLVKPSETLSLTCTVSGGSISSYYWSWIRQPPGKGLEWIGYIYYSGYTNYNPSLKSRVNISVDTSQNQFSLKLNSLTAADTAVYYCARTHSYYYGMDVWGQGTTVTVSS
VL: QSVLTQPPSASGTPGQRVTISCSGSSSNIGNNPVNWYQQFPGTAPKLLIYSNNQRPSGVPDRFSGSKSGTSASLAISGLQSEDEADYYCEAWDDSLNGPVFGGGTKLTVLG
notes: Purified from a hybridoma derived from an AlivaMab mouse
binding result [1]: binds | binding result [2]: binds

B11: anti-CD137 antibody A2-73 (antibody, V domains shown)
VH: QVQLQESGPGLVKPSETLSLTCTVSGGSISSYYWTWIRQPPGKGLELVGYIYYSGYTSYNPSLKSRVTISIDTSKNQFSLQLNSVTAADTAVYFCARDDYGGNGYYGVDVWGQGTTVTVSS
VL: not shown
notes: as for B10
binding result [1]: binds | binding result [2]: binds
